Assay results reported in publication PMC3117669 (The Biochemical journal, 2010).
Several values for one entry are separate records, joined by “and”; a condition that tells them apart may be missing. Equal values may be shown once.

Experiments:
[1] = biological target: the molecule itself; experiment: native gel or EMSA
[2] = biological target: T1, V5-lipin 1b (469-924), immunopurified (mouse, UniProt Q91ZP3 469-924); experiment: pull-down
T1 sequence (looked up): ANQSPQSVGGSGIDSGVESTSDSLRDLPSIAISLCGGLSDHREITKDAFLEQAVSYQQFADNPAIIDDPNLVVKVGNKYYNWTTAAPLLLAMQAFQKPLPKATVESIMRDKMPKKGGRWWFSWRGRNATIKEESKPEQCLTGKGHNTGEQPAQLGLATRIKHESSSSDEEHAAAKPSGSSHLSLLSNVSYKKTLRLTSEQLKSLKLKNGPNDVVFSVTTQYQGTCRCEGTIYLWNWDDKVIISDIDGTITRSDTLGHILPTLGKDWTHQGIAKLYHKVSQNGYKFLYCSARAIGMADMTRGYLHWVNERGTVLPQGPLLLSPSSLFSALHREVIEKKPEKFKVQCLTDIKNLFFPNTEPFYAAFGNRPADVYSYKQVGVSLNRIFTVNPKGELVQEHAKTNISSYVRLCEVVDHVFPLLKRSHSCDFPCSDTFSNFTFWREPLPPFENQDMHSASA

[3] = biological target: T2, GST-lipin 1b (1-641) (mouse, UniProt Q91ZP3 1-641); experiment: pull-down
T2 sequence (looked up): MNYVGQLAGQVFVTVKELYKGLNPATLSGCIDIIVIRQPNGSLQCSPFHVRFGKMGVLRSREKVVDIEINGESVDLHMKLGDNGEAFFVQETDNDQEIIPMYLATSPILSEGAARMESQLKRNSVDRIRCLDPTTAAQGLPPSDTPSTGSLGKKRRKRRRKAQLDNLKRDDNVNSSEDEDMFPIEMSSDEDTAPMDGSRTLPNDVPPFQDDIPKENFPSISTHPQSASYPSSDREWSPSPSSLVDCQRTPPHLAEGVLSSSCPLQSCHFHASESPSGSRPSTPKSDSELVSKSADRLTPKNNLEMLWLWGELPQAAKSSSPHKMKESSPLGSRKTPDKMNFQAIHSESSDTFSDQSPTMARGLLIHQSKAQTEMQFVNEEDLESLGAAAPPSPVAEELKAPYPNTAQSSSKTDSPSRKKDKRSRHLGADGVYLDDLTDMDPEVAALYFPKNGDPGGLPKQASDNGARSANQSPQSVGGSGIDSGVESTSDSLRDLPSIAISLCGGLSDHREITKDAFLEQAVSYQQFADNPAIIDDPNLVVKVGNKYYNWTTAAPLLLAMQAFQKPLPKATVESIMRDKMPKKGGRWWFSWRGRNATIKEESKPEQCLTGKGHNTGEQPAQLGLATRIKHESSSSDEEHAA

B1: lipin 1b-V5 (HEK293A) (natural protein, mouse, UniProt Q91ZP3 1-924, looked up)
chain: MNYVGQLAGQVFVTVKELYKGLNPATLSGCIDIIVIRQPNGSLQCSPFHVRFGKMGVLRSREKVVDIEINGESVDLHMKLGDNGEAFFVQETDNDQEIIPMYLATSPILSEGAARMESQLKRNSVDRIRCLDPTTAAQGLPPSDTPSTGSLGKKRRKRRRKAQLDNLKRDDNVNSSEDEDMFPIEMSSDEDTAPMDGSRTLPNDVPPFQDDIPKENFPSISTHPQSASYPSSDREWSPSPSSLVDCQRTPPHLAEGVLSSSCPLQSCHFHASESPSGSRPSTPKSDSELVSKSADRLTPKNNLEMLWLWGELPQAAKSSSPHKMKESSPLGSRKTPDKMNFQAIHSESSDTFSDQSPTMARGLLIHQSKAQTEMQFVNEEDLESLGAAAPPSPVAEELKAPYPNTAQSSSKTDSPSRKKDKRSRHLGADGVYLDDLTDMDPEVAALYFPKNGDPGGLPKQASDNGARSANQSPQSVGGSGIDSGVESTSDSLRDLPSIAISLCGGLSDHREITKDAFLEQAVSYQQFADNPAIIDDPNLVVKVGNKYYNWTTAAPLLLAMQAFQKPLPKATVESIMRDKMPKKGGRWWFSWRGRNATIKEESKPEQCLTGKGHNTGEQPAQLGLATRIKHESSSSDEEHAAAKPSGSSHLSLLSNVSYKKTLRLTSEQLKSLKLKNGPNDVVFSVTTQYQGTCRCEGTIYLWNWDDKVIISDIDGTITRSDTLGHILPTLGKDWTHQGIAKLYHKVSQNGYKFLYCSARAIGMADMTRGYLHWVNERGTVLPQGPLLLSPSSLFSALHREVIEKKPEKFKVQCLTDIKNLFFPNTEPFYAAFGNRPADVYSYKQVGVSLNRIFTVNPKGELVQEHAKTNISSYVRLCEVVDHVFPLLKRSHSCDFPCSDTFSNFTFWREPLPPFENQDMHSASA
[1]
  stoichiometry N: 2 and 4

B2: GST-lipin 1b (642-924) (domain or fragment, mouse, UniProt Q91ZP3 642-924, looked up)
chain: AKPSGSSHLSLLSNVSYKKTLRLTSEQLKSLKLKNGPNDVVFSVTTQYQGTCRCEGTIYLWNWDDKVIISDIDGTITRSDTLGHILPTLGKDWTHQGIAKLYHKVSQNGYKFLYCSARAIGMADMTRGYLHWVNERGTVLPQGPLLLSPSSLFSALHREVIEKKPEKFKVQCLTDIKNLFFPNTEPFYAAFGNRPADVYSYKQVGVSLNRIFTVNPKGELVQEHAKTNISSYVRLCEVVDHVFPLLKRSHSCDFPCSDTFSNFTFWREPLPPFENQDMHSASA
[2]
  binding result: binds

B3: V5-lipin 1b (1-171), immunopurified (domain or fragment, mouse, UniProt Q91ZP3 1-171, looked up)
chain: MNYVGQLAGQVFVTVKELYKGLNPATLSGCIDIIVIRQPNGSLQCSPFHVRFGKMGVLRSREKVVDIEINGESVDLHMKLGDNGEAFFVQETDNDQEIIPMYLATSPILSEGAARMESQLKRNSVDRIRCLDPTTAAQGLPPSDTPSTGSLGKKRRKRRRKAQLDNLKRDD
[3]
  binding result: binds
